In PMC4072462:

Target: FabR_vc (N-terminal His6) (Vibrio cholerae, UniProt Q9KVJ2 1-213)
Experiment: EMSA

Binder | binding result
fabBec B+D (dsDNA) DNA 1: TCTATTAAATGGCTGATCGGACTTGTTCGGCGTACAAGTGTACGCTATTGTGCATTC DNA 2: GAATGCACAATAGCGTACACTTGTACGCCGAACAAGTCCGATCAGCCATTTAATAGA | binds
fabAec B+D (dsDNA) DNA 1: TTTATTCCGAACTGATCGGACTTGTTCAGCGTACACGTGTTAGCTATCCTGCGTGC DNA 2: GCACGCAGGATAGCTAACACGTGTACGCTGAACAAGTCCGATCAGTTCGGAATAAA | binds
